Publication PMC8501077 (Nature Communications, 2021)

B1: C-terminally 3xFLAG tagged Sei1 (yeast Seipin) (natural protein, S. cerevisiae)
chain: MKINVSRPLQFLQWSSYIVVAFLIQLLIILPLSILIYHDFYLRLLPADSSNVVPLNTFNILNGVQFGTKFFQSIKSIPVGTDLPQTIDNGLSQLIPMRDNMEYKLDLNLQLYCQSKTDHLNLDNLLIDVYRGPGPLLGAPGGSNSKDEKIFHTSRPIVCLALTDSMSPQEIEQLGPSRLDVYDEEWLNTIRIEDKISLESSYETISVFLKTEIAQRNLIIHPESGIKFRMNFEQGLRNLMLRKRFLSYIIGISIFHCIICVLFFITGCTAFIFVRKGQEKSKKHS
notes: Sei1, the yeast Seipin, S. cerevisiae; model built for residues 24-132 and 145-265; also called Sei1-FLAG; WT Sei1; source: S. cerevisiae, plasmid-borne, in detergent extract of crude membranes; not shown: 3xFLAG, C-terminal, kept; copies: 10

Key:
[1] = target: FLAG-tagged Sei1∆231-243, locking helix replaced by a flexible linker (S. cerevisiae) (UniProt Q06058); assay: cryo-EM structure; single-particle cryo-EM of FLAG-purified protein in DDM/CHS (50 mM Tris.HCl pH7.4, 200 mM NaCl, 1 mM EDTA); C10 symmetry applied
[2] = target: the molecule itself; assay: as above

Row | Molecule | stoichiometry N [1] | stoichiometry N [2]
1 | FLAG-tagged Sei1∆231-243, locking helix replaced by a flexible linker (from UniProt Q06058 1-230; Q06058 244-285) (natural protein) | 10 | –
2 | B1 | – | 10
